From publication PMC10853775 (Nucleic Acids Research, 2023)

Target: the molecule itself
Assay: crystal structure

B1: human nucleoside diphosphate kinase (NDPKb) (enzyme)
chain: ANLERTFIAIKPDGVQRGLVGEIIKRFEQKGFRLVAMKFLRASEEHLKQHYIDLKDRPFFPGLVKYMNSGPVVAMVWEGLNVVKTGRVMLGETNPADSKPGTIRGDFCIQVGRNIIHGSDSVKSAEKEISLWFKPEELVDYKSCAHDWVYE
stoichiometry N: 6
